The text below walks through data of patent US20240092867A1 (UNIVERSITY OF CHICAGO, published 2024).

One test deals with T1, laminin-111 (human, UniProt P25391 18-3075; P07942 22-1786; P11047 34-1609).
T1 construct: Full-length recombinant human laminin isoform (BioLamina); Chain composition is read from the isoform name
The test can be described thus: ELISA, GF coated, laminin 10 nM. The procedure:
(§1) ELISA tests were performed as previously reported. In brief, ELISA plates (med-binding, Greiner Bio-One) were coated with 50 nM GFs at 37° C. for more than 2 hrs. […] Bound laminin was detected with rabbit anti-human laminin γ1 chain antibody (1:1000 dilution, Assay biotech) or rabbit anti-human laminin α3 chain antibody (1:1000 dilution, Assay biotech). After incubation with biotinylated anti-rabbit antibody for 60 min at room temperature (RT), HRP conjugated streptavidin (Jackson ImmunoResearch) was added. After 60 min of incubation at RT, 50 μL TMB substrate (Sigma-Aldrich) was added. The reactions were stopped by adding 25 μL of 2 N H₂SO₄. Subsequently, the absorbance at 450 nm was measured with a reference of 570 nm.

The next test concerns the target T2, laminin-411 (human, UniProt Q16363 25-1823; P07942 22-1786; P11047 34-1609).
T2 construct: Full-length recombinant human laminin isoform (BioLamina); chains read from the isoform name
The test can be described thus: ELISA, GF coated, laminin 10 nM. How it is done: as §1

Another test has as its target T3, laminin-211 (human, UniProt P24043 23-3122; P07942 22-1786; P11047 34-1609).
T3 construct: Full-length recombinant human laminin isoform (BioLamina); chains read from the isoform name
Description: ELISA, GF coated, laminin 10 nM. How it is done:
as §1
A general note: ELISA stands for enzyme-linked immunosorbent assay.

For another test, the target named is T4, laminin-511 (human, UniProt O15230 36-3695; P07942 22-1786; P11047 34-1609).
T4 construct: Full-length recombinant human laminin isoform (BioLamina); chains read from the isoform name
The test can be described thus: ELISA, GF coated, laminin 10 nM. How it is done: as §1

Another test has as its target T5, laminin-421 (human, UniProt Q16363 25-1823; P55268 33-1798; P11047 34-1609).
T5 construct: Full-length recombinant human laminin isoform (BioLamina); chains read from the isoform name
Description: ELISA, GF coated, laminin 10 nM. The procedure: as §1

A further test concerns the target T6, laminin-521 (human, UniProt O15230 36-3695; P55268 33-1798; P11047 34-1609).
T6 construct: Full-length recombinant human laminin isoform (BioLamina); chains read from the isoform name
Description: ELISA, GF coated, laminin 10 nM. The procedure: as §1

The next test deals with T7, human plasma-derived vWF (human, UniProt P04275 764-2813).
T7 construct: mature; also called plasma-derived purified vWF; von Willebrand factor
The test can be described thus: ELISA, GF coated 50 nM, vWF 1 µg/mL. The procedure:
ELISA tests were performed as previously reported1. In brief, ELISA plates (med-binding, Greiner Bio-One) were coated with 50 nM GFs at 37° C. for 2 hrs. […] Then, HRP conjugated goat anti-rabbit antibody (Jackson ImmunoResearch) was added. After 60 min of incubation, 50 μL TMB substrate (Sigma-Aldrich) was added. The reaction was stopped by adding 25 μL of 2N H2SO4. Subsequently, the absorbance at 450 nm was measured and subtracted the absorbance at 570 nm.

Test [1] has as its target T8, vascular endothelial growth factor (VEGF)-A165 (human, UniProt P15692-4 27-191).
T8 construct: mature; Purchased in mature form, not glycosylated
Description: ELISA; peptide coated at 10 µg/mL, 1 µg/mL VEGF-A165 in solution, bound GF detected with antibody [panel VEGF-A165]. How it is done:
(§2) FIG. 9. […] Affinity of GFs against chemically synthesized peptides that are scrambled (Scr) the sequence of α3₃₀₄₃₋₃₀₆₂. ELISA plates were coated with 10 μg/mL laminin peptide and further incubated with VEGF-A165, PlGF-2, PDGF-BB, or FGF-2. Concentrations were 1 μg/mL for GFs. Bound GF was detected with a specific antibody for each GF (n=4, mean±SEM). Statistical analyses were done using one-way ANOVA. *p<0.05, **p<0.01. Sequence of the peptides are described in Table 2.
(§3) ELISA tests were performed as described above. […] 1 μg/mL of BSA served as non-binding protein control. After blocking with 2% BSA PBS-0.05% Tween 20 (PBS-T) solution, 1 μg/mL of the recombinant human proteins (VEGF-A121, VEGF-A165, PlGF-1, PlGF-2, PDGF-BB or FGF-2) or 10 μg/mL of biotinylated heparin (Sigma-Aldrich) were added. Bound GF was detected with biotinylated antibodies for human VEGF, PlGF, PDGF-BB, or FGF-2 (R&D Systems). The antibodies were detected by streptavidin-HRP (R&D Systems).

Test [2] addresses T9, placental growth factor (PlGF)-2 (human, UniProt P49763-3 19-170).
T9 construct: mature; Purchased in mature form
T9 sequence (looked up): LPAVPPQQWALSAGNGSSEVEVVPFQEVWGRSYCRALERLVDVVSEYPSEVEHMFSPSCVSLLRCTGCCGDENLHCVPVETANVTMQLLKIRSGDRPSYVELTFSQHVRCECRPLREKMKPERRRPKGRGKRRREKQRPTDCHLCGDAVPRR
The test can be described thus: ELISA; peptide coated at 10 µg/mL, 1 µg/mL PlGF-2 in solution, bound GF detected with antibody [panel PlGF-2]. The procedure: as §2, §3

In test [3] the target is T10, platelet-derived growth factor (PDGF)-BB (human, UniProt P01127 82-190).
T10 construct: mature; Purchased in mature form
Description: ELISA; peptide coated at 10 µg/mL, 1 µg/mL PDGF-BB in solution, bound GF detected with antibody [panel PDGF-BB]. The procedure:
as §2, §3

Test [4] concerns the target T11, fibroblast growth factor (FGF)-2 (human, UniProt P09038 143-288).
T11 construct: mature; Purchased in mature form
Description: ELISA; peptide coated at 10 µg/mL, 1 µg/mL FGF-2 in solution, bound GF detected with antibody [panel FGF-2]. The procedure: as §2, §3

T5 sequence (Q16363 25-1823 limits assumed, chain 1 of 3): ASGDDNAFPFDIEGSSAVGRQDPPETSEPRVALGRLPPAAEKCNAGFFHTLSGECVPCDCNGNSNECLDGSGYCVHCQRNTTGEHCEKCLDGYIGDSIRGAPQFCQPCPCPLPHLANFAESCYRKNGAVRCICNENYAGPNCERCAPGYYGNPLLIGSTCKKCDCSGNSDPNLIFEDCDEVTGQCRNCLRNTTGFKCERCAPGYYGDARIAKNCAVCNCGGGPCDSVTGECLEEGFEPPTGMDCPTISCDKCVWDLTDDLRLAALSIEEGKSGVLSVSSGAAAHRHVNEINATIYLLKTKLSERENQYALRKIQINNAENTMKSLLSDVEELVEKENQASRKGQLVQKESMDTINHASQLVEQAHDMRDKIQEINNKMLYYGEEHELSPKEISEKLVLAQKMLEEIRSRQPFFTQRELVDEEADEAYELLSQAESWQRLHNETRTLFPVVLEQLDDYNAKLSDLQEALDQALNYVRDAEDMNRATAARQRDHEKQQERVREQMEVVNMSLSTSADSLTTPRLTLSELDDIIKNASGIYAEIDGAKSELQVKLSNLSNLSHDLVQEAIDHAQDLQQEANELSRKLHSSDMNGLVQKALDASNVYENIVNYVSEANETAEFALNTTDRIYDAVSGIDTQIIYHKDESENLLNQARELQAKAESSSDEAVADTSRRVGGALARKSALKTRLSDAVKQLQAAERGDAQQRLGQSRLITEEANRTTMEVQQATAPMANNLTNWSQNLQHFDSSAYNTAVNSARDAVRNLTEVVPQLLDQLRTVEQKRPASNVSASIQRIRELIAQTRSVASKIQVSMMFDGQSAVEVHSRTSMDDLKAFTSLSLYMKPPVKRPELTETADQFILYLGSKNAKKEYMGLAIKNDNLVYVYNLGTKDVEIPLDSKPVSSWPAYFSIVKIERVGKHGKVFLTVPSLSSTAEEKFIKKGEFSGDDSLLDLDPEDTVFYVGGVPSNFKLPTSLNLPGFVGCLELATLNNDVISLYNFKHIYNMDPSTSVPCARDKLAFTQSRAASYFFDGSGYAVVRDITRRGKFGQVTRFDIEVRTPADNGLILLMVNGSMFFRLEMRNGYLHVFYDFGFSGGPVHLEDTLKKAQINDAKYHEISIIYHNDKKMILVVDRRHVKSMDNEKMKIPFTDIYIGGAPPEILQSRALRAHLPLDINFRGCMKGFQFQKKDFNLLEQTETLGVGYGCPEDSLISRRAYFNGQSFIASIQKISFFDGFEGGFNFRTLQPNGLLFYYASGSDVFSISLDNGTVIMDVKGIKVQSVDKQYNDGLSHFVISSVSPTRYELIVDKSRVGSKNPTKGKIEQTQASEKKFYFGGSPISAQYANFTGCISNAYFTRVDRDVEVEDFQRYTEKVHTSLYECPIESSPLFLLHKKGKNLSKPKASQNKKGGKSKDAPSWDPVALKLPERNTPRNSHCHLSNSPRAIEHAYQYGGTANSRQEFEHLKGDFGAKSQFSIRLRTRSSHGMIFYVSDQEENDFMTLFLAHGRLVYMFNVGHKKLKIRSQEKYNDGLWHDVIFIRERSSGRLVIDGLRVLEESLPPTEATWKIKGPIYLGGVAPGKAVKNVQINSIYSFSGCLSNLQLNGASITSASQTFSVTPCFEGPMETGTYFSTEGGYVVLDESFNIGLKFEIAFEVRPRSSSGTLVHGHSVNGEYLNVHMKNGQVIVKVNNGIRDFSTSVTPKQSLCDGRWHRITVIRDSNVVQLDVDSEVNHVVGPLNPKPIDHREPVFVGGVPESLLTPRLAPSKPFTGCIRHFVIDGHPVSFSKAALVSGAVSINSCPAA
T5 sequence (P55268 33-1798 limits assumed, chain 2 of 3): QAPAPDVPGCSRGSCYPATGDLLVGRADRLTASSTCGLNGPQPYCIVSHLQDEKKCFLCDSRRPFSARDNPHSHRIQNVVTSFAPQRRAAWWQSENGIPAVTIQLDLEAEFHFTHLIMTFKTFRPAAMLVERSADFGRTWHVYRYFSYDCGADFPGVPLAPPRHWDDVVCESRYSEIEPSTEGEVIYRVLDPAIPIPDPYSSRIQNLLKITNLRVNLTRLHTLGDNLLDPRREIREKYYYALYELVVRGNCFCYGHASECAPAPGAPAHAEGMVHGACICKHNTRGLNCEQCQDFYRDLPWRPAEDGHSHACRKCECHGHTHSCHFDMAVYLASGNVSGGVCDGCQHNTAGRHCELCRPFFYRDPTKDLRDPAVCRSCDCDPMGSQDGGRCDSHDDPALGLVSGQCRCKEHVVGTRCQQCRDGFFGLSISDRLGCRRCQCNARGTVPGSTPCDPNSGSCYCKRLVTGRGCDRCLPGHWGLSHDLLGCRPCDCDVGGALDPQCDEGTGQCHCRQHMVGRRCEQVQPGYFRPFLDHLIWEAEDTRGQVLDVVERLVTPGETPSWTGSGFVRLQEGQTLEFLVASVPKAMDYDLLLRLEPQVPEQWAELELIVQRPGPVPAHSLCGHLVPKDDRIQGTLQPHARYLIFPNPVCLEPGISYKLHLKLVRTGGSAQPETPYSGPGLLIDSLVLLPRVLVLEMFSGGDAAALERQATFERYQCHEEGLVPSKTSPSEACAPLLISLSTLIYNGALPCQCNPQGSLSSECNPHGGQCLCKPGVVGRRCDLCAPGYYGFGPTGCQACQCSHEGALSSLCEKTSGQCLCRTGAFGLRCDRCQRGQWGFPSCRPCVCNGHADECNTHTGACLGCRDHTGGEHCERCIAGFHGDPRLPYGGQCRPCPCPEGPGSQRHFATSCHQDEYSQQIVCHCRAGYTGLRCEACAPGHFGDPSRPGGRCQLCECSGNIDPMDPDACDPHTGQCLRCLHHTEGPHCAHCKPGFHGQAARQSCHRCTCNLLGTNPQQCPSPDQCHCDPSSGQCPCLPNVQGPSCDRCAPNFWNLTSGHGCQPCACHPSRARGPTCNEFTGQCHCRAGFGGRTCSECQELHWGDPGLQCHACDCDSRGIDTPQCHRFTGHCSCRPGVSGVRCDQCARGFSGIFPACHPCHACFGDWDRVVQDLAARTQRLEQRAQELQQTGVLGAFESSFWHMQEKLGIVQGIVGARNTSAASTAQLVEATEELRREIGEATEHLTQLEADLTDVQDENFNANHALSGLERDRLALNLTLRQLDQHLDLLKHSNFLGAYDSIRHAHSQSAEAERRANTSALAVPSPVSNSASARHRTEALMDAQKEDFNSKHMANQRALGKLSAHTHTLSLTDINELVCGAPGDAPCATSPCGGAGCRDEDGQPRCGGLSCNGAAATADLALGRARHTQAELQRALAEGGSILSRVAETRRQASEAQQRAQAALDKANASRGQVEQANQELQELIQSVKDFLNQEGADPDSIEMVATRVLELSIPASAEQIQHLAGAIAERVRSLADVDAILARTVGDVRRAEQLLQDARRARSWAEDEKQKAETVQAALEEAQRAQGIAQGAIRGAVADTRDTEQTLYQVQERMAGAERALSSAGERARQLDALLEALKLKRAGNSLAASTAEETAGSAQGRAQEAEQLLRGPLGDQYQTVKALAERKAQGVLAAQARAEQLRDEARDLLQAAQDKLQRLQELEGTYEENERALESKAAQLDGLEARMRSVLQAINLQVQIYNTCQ
T5 sequence (P11047 34-1609 limits assumed, chain 3 of 3): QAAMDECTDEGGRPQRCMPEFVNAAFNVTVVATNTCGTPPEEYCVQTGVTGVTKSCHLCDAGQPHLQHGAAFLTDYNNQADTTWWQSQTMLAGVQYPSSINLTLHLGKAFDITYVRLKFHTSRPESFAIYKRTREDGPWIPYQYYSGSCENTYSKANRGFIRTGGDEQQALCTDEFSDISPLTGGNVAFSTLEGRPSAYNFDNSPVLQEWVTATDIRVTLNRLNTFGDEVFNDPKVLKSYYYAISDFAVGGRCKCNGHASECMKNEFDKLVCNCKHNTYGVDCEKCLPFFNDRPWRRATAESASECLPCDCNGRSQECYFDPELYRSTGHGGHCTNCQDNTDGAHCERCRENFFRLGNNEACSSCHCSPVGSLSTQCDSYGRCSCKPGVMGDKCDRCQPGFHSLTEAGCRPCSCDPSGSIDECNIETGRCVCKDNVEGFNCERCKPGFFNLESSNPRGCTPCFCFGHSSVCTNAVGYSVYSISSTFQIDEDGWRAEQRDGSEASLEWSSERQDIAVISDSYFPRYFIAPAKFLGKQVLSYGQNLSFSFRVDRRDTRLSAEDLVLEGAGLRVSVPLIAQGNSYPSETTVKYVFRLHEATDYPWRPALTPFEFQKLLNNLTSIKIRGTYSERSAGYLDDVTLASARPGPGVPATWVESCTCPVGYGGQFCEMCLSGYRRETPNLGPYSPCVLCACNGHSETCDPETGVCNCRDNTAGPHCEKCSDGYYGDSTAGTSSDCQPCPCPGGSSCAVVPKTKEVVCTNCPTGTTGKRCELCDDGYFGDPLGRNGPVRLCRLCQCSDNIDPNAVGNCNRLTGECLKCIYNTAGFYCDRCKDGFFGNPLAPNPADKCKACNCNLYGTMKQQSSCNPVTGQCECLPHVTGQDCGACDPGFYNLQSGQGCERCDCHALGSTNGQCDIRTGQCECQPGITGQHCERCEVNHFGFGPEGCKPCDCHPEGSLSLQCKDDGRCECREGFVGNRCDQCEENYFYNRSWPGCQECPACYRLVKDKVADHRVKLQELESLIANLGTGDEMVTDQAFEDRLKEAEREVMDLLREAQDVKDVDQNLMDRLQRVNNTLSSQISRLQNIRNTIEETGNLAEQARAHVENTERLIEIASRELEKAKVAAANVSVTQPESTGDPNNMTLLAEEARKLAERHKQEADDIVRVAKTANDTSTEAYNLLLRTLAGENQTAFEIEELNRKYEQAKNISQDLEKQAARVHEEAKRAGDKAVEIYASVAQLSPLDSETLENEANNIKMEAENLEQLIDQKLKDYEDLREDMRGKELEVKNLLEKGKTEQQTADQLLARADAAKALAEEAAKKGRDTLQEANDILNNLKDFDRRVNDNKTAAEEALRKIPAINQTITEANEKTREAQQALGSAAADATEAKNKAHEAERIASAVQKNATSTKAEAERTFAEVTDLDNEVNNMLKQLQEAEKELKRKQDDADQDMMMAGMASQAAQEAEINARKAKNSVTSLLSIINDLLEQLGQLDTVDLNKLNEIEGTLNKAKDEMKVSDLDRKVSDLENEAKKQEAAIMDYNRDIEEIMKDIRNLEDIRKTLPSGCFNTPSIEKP

B1: bone morphogenetic protein (BMP)-2 (ligand, UniProt P12643 283-396, looked up)
chain: QAKHKQRKRLKSSCKRHPLYVDFSDVGWNDWIVAPPGYHAFYCHGECPFPLADHLNSTNHAIVQTLVNSVNSKIPKACCVPTELSAISMLYLDENEKVVLKNYQDMVVEGCGCR
notes: mature
On to B1, for which the binding result with laminin-111, with laminin-411, with laminin-211, with laminin-511, with laminin-421 and with laminin-521 was “binds” throughout. In addition, the binding result in the test with human plasma-derived vWF is “binds”.
Consider ALLLGIGRDFNKKKRKKKSEVTDGC (Scrambled peptide) [α3 3043-3067 Scr6], for which the binding result in test [1], in [2], in test [3] and in test [4] was “binds” throughout.
Turning to CRKKKRKKKALLLGIGDFNSEVTDG (Scrambled peptide) [α3 3043-3067 Scr3], the binding result in test [1], in [2], in test [3] and in [4] was “binds” in each case.
For RKTDALELVFLKKGGIGSKKCNDKR (Scrambled peptide) [α3 3043-3067 Scr2], the binding result in test [1], in [2], in test [3] and in test [4] was “binds” each time.
Consider KKRKLVALTDFLGICGSENDGRKKK (Scrambled peptide) [α3 3043-3067 Scr4], for which the binding result in test [1], in [2], in test [3] and in test [4] was “binds” each time.
Take RLVKALKTDKFLGRIGSEKCNDKGK (Scrambled peptide) [α3 3043-3067 Scr1]: the binding result in [1], in [2], in test [3] and in test [4] was “binds” each time.

B2: neurotrophin (NT)-3 (ligand, UniProt P20783 139-257, looked up)
chain: YAEHKSHRGEYSVCDSESLWVTDKSSAIDIRGHQVTVLGEIKTGNSPVKQYFYETRCKEARPVKNGCRGIDDKHWNSQCKTSQTYVRALTSENNKLVGWRWIRIDTSCVCALSRKIGRT
notes: mature; Purchased in mature form
Regarding B2, the binding result with laminin-111, with laminin-411, with laminin-211, with laminin-511, with laminin-421 and with laminin-521 was “binds” each time. Besides, the binding result with human plasma-derived vWF was “binds”.
For the molecule LVRAKLTDKFLGKRIGSKECNKDKG (Scrambled peptide) [α3 3043-3067 Scr5], the binding result in [1], in test [2], in test [3] and in [4] was “binds” each time.

B3: C-X-C motif ligand (CXCL)-11 (ligand, UniProt O14625 22-94, looked up)
chain: FPMFKRGRCLCIGPGVKAVKVADIEKASIMYPSNNCDKIEVIITLKENKGQRCLNPKSKQARLIIKKVERKNF
notes: as for B2
Consider B3, for which the binding result with laminin-111, with laminin-411, in the test with laminin-211, with laminin-511, with laminin-421 and with laminin-521 was “no binding (tested: A450 0.1)” in each case. Further, the binding result with human plasma-derived vWF was “binds”.
